From the supplement of paper PMC9112550, “Optimization of the antimicrobial peptide Bac7 by deep mutational scanning” (BMC Biology, 2022)

Each sequence was assayed on Escherichia coli TOP10 (assay: shrunken log2 fold change of peptide-encoding DNA abundance (4.5 h post-induction vs induction); higher = less antimicrobial activity (less host growth inhibition)). Details: time post-induction: 4.5 h; library: site-saturation at positions 5, 18, 19, 20.
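Note: peptides expressed intracellularly from a pBAD plasmid library in pooled LB shake-flask culture, induced with 0.3% L-arabinose, DNA abundance read by NGS, three biological replicates, DESeq2 with apeglm shrinkage.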

Sequence	shrunken log2 fold change
RRIRSRPPRLPRPRPRPFLIPRP	-0.383
RRIRMRPPRLPRPRPRPALKPRP	1.09
RRIRPRPPRLPRPRPRPRWKPRP	0.176
RRIRQRPPRLPRPRPRPRLNPRP	-0.111
RRIRDRPPRLPRPRPRPKCCPRP	0.112
RRIRPRPPRLPRPRPRPGNEPRP	-0.247
RRIRARPPRLPRPRPRPFVHPRP	-0.207
RRIRDRPPRLPRPRPRPRKGPRP	0.0785
RRIRGRPPRLPRPRPRPMTDPRP	0.603
RRIRKRPPRLPRPRPRPAQYPRP	-0.141
RRIRHRPPRLPRPRPRPIHQPRP	-0.441
RRIRLRPPRLPRPRPRPRKGPRP	0.0226
RRIRMRPPRLPRPRPRPKMDPRP	1.2
RRIRARPPRLPRPRPRPTWPPRP	1.13
RRIRARPPRLPRPRPRPKNNPRP	-0.0541
RRIRVRPPRLPRPRPRPIYQPRP	-0.27
RRIRYRPPRLPRPRPRPYTLPRP	-0.213
RRIRLRPPRLPRPRPRPIAIPRP	0.12
RRIRDRPPRLPRPRPRPPVLPRP	0.267
RRIRERPPRLPRPRPRPIRHPRP	-0.397
RRIRKRPPRLPRPRPRPKHLPRP	-0.334
RRIRHRPPRLPRPRPRPAVTPRP	-0.1
RRIRQRPPRLPRPRPRPVIQPRP	-0.065
RRIRTRPPRLPRPRPRPANIPRP	-0.439
RRIRRRPPRLPRPRPRPHHFPRP	-0.196

Sequence	shrunken log2 fold change
RRIRIRPPRLPRPRPRPILFPRP	-0.273
RRIRSRPPRLPRPRPRPCLTPRP	-0.293
RRIRNRPPRLPRPRPRPVYLPRP	-0.216
RRIRWRPPRLPRPRPRPILCPRP	0.00316
RRIRMRPPRLPRPRPRPIVLPRP	-0.0572
RRIRPRPPRLPRPRPRPGGTPRP	0.269
RRIRGRPPRLPRPRPRPYSNPRP	0.0659
RRIRYRPPRLPRPRPRPSHYPRP	-0.966
RRIRVRPPRLPRPRPRPSKIPRP	-0.0852
RRIRNRPPRLPRPRPRPHKMPRP	-0.634
RRIRGRPPRLPRPRPRPDCIPRP	0.799
RRIRKRPPRLPRPRPRPGCVPRP	1.16
RRIRRRPPRLPRPRPRPWATPRP	0.0893
RRIRMRPPRLPRPRPRPMGQPRP	0.579
RRIRFRPPRLPRPRPRPNKPPRP	-0.00705
RRIRFRPPRLPRPRPRPKCWPRP	0.267
RRIRARPPRLPRPRPRPWCMPRP	-0.223
RRIRWRPPRLPRPRPRPMMDPRP	0.000475
RRIRCRPPRLPRPRPRPYARPRP	-0.746
RRIRSRPPRLPRPRPRPWRVPRP	0.108
RRIRLRPPRLPRPRPRPQATPRP	-0.0468
RRIRQRPPRLPRPRPRPLKHPRP	-0.589
RRIRRRPPRLPRPRPRPVMGPRP	0.0569
RRIRHRPPRLPRPRPRPCLGPRP	0.0158
RRIRARPPRLPRPRPRPQSEPRP	0.152

Sequence	shrunken log2 fold change
RRIRCRPPRLPRPRPRPCHEPRP	-0.0566
RRIRNRPPRLPRPRPRPNCNPRP	-0.549
RRIRNRPPRLPRPRPRPMAQPRP	0.0103
RRIRCRPPRLPRPRPRPYLRPRP	-0.00889
RRIRNRPPRLPRPRPRPALAPRP	0.1
RRIRGRPPRLPRPRPRPSEMPRP	0.4
RRIRMRPPRLPRPRPRPTFVPRP	0.134
RRIRRRPPRLPRPRPRPNCKPRP	0.155
RRIRWRPPRLPRPRPRPAADPRP	1.21
RRIRVRPPRLPRPRPRPGTSPRP	-0.073
RRIRDRPPRLPRPRPRPCTEPRP	0.373
RRIRERPPRLPRPRPRPILVPRP	0.028
RRIRVRPPRLPRPRPRPPDSPRP	-0.136
RRIRVRPPRLPRPRPRPEKMPRP	-0.3
RRIRARPPRLPRPRPRPFIVPRP	-0.286
RRIRERPPRLPRPRPRPLHCPRP	0.0821
RRIRHRPPRLPRPRPRPCGSPRP	-0.153
RRIRCRPPRLPRPRPRPVGFPRP	0.0344
RRIRRRPPRLPRPRPRPHLMPRP	0.226
RRIRERPPRLPRPRPRPSFSPRP	-0.765
RRIRLRPPRLPRPRPRPDAKPRP	0.0577
RRIRIRPPRLPRPRPRPWAQPRP	0.0697
RRIRGRPPRLPRPRPRPPMNPRP	0.464
RRIRSRPPRLPRPRPRPFGAPRP	0.162
RRIRRRPPRLPRPRPRPQELPRP	0.158
